The target of assay [1] is T1, FcγRIIa H (human FcγRIIa, allotype with His at position 131), extracellular domain with C-terminal His tag (human, UniProt P12318 34-217). In words: SPR (Biacore), antibody captured on antigen peptide chip, FcγR as analyte; relative to HeCon Ab GpH7-A5/GpH7-B3/GpL16-k0 = 100.
For assay [2], the target named is T1, FcγRIIa H (human FcγRIIa, allotype with …). The assay is described as follows: SPR (Biacore), antibody captured on antigen peptide chip, FcγR as analyte; relative to HoCon Ab GpH7-B3/GpL16-k0 = 100.

T1 sequence (P12318 34-217): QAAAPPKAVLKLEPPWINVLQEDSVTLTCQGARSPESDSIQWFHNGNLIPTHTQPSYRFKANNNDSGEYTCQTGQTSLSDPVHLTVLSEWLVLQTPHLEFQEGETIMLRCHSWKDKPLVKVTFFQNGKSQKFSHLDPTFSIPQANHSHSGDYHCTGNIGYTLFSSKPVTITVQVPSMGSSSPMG

B1: GpH7-A5/GpH7-B3 variant S337_08L/GpL16-k0 (antibody, human IgG1, kappa)
heavy 1: not shown
heavy 2: not shown
light: DIVMTQSPLSLPVTPGEPASISCQASESLVHSNRNTYLHWYLQKPGQSPQLLIYKVSNRFSGVPDRFSGSGSGTDFTLKISRVEAEDVGVYYCSQNTHVPPTFGQGTKVEIERTVAAPSVFIFPPSDEQLKSGTASVVCLLNNFYPREAKVQWKVDNALQSGNSQESVTEQDSKDSTYSLSSTLTLSKADYEKHKVYACEVTHQGLSSPVTKSFNRGEC
notes: heterodimerized, mutation in one H chain only; also called He Ab
In the case of B1, the He/Con_2aH in assay [1] was found to be 100 control = 100.

B2: GpH7-A5/GpH7-B3 variant H268_02A/GpL16-k0 (antibody, human IgG1, kappa)
heavy 1: not shown
heavy 2: not shown
light: B1 light
notes: as for B1
B2: the He/Con_2aH in assay [1] is 114 control = 100.

B3: GpH7-A5/GpH7-B3 variant H268_19Q/GpL16-k0 (antibody, human IgG1, kappa)
heavy 1: not shown
heavy 2: not shown
light: B1 light
notes: as for B1
B3: the He/Con_2aH in assay [1] was 102 control = 100.

B4: GpH7-B3 variant K334_13S/GpL16-k0 (antibody, human IgG1, kappa)
heavy: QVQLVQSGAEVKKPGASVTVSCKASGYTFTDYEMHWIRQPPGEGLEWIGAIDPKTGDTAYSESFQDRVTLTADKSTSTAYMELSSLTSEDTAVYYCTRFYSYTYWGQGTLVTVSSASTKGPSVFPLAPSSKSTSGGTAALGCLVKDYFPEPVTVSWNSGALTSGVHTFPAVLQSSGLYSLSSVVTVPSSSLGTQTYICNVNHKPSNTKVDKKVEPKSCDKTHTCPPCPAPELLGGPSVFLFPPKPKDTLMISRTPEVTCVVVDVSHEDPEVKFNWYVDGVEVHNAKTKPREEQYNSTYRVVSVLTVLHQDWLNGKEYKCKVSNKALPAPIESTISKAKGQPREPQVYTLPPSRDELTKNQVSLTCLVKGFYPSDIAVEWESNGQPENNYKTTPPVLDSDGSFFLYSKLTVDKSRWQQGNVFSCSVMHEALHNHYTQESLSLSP
light: B1 light
notes: homodimerized, mutation in both H chains; also called Ho Ab
B4 yielded a Ho/Con_2aH in assay [2] of 94.9 control = 100.

B5: GpH7-A5/GpH7-B3 variant I336_08L/GpL16-k0 (antibody, human IgG1, kappa)
heavy 1: not shown
heavy 2: not shown
light: B1 light
notes: as for B1
The molecule B5 gave a He/Con_2aH in assay [1] of 106 control = 100.

B6: GpH7-A5/GpH7-B3 variant V266_08L/GpL16-k0 (antibody, human IgG1, kappa)
heavy 1: not shown
heavy 2: not shown
light: B1 light
notes: as for B1
In assay [1], B6 came in with a He/Con_2aH of 104 control = 100.

B7: GpH7-B3 variant S267_09D/GpL16-k0 (antibody, human IgG1, kappa)
heavy: not shown
light: B1 light
notes: as for B4
In assay [2], B7 had a Ho/Con_2aH of 91.5 control = 100.

B8: GpH7-B3 variant K334_19Q/GpL16-k0 (antibody, human IgG1, kappa)
heavy: not shown
light: B1 light
notes: as for B4
In assay [2], B8 returned a Ho/Con_2aH of 97.2 control = 100.

B9: GpH7-B3 variant G236_14T/GpL16-k0 (antibody, human IgG1, kappa)
heavy: not shown
light: B1 light
notes: as for B4
Regarding B9, the Ho/Con_2aH in assay [2] came out at 94.2 control = 100.

B10: GpH7-B3 variant G236_04F/GpL16-k0 (antibody, human IgG1, kappa)
heavy: not shown
light: B1 light
notes: as for B4
In assay [2], B10 showed a Ho/Con_2aH of 63.2 control = 100.

B11: GpH7-B3 variant K326_01G/GpL16-k0 (antibody, human IgG1, kappa)
heavy: not shown
light: B1 light
notes: as for B4
The molecule B11 displayed a Ho/Con_2aH in assay [2] of 98.2 control = 100.

B12: GpH7-A5/GpH7-B3 variant Y296_09D/GpL16-k0 (antibody, human IgG1, kappa)
heavy 1: not shown
heavy 2: not shown
light: B1 light
notes: as for B1
In assay [1], B12 came in with a He/Con_2aH of 104 control = 100.

B13: GpH7-B3 variant E333_08L/GpL16-k0 (antibody, human IgG1, kappa)
heavy: not shown
light: B1 light
notes: as for B4
For the molecule B13, the Ho/Con_2aH in assay [2] was determined as 96.5 control = 100.

B14: GpH7-B3 variant K326_07I/GpL16-k0 (antibody, human IgG1, kappa)
heavy: not shown
light: B1 light
notes: as for B4
In the case of B14, the Ho/Con_2aH in assay [2] was found to be 78.1 control = 100.

B15: GpH7-B3 variant S337_10E/GpL16-k0 (antibody, human IgG1, kappa)
heavy: not shown
light: B1 light
notes: as for B4
Turning to B15, the Ho/Con_2aH in assay [2] was determined as 101 control = 100.

B16: GpH7-B3 variant S239_08L/GpL16-k0 (antibody, human IgG1, kappa)
heavy: not shown
light: B1 light
notes: as for B4
B16 had a Ho/Con_2aH in assay [2] of 87 control = 100.

B17: GpH7-B3 variant K326_12R/GpL16-k0 (antibody, human IgG1, kappa)
heavy: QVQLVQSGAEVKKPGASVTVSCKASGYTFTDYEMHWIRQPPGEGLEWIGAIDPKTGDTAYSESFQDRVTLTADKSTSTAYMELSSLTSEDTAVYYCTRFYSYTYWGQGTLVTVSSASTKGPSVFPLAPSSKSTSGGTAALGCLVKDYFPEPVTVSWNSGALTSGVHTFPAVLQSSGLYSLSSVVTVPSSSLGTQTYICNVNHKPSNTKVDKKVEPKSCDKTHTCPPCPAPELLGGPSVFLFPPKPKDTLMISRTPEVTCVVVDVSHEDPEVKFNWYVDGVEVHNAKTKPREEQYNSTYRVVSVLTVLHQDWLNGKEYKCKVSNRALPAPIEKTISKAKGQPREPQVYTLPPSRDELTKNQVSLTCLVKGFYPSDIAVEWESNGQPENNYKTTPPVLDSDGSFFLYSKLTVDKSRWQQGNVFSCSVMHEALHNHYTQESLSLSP
light: B1 light
notes: as for B4
As to B17, the Ho/Con_2aH in assay [2] turned out to be 98.8 control = 100.

B18: GpH7-A5/GpH7-B3 variant G236_03V/GpL16-k0 (antibody, human IgG1, kappa)
heavy 1: not shown
heavy 2: not shown
light: B1 light
notes: as for B1
In the case of B18, the He/Con_2aH in assay [1] worked out at 119 control = 100.

B19: GpH7-A5/GpH7-B3 variant A330_16H/GpL16-k0 (antibody, human IgG1, kappa)
heavy 1: not shown
heavy 2: not shown
light: B1 light
notes: as for B1
Take B19: the He/Con_2aH in assay [1] was 101 control = 100.

B20: GpH7-A5/GpH7-B3 variant Y296_16H/GpL16-k0 (antibody, human IgG1, kappa)
heavy 1: not shown
heavy 2: not shown
light: B1 light
notes: as for B1
For B20, in assay [1], the He/Con_2aH turned out to be 104 control = 100.

B21: GpH7-B3 variant L234_04F/GpL16-k0 (antibody, human IgG1, kappa)
heavy: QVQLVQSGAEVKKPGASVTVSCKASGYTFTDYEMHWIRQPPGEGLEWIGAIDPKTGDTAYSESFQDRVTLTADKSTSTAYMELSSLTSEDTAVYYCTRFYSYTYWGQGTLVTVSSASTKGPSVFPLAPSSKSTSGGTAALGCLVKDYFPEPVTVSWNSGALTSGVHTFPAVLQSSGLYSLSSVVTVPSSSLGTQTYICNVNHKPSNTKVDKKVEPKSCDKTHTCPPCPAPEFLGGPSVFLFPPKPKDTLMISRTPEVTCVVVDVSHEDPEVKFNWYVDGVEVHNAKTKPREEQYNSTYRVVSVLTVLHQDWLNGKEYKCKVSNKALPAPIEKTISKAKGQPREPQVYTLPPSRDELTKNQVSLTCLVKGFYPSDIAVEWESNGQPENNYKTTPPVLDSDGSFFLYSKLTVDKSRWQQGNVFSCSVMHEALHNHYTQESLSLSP
light: B1 light
notes: as for B4
Take B21: the Ho/Con_2aH in assay [2] was 54.2 control = 100.

B22: GpH7-B3 variant T335_10E/GpL16-k0 (antibody, human IgG1, kappa)
heavy: not shown
light: B1 light
notes: as for B4
On to B22, for which, in assay [2], the Ho/Con_2aH worked out at 105 control = 100.

B23: GpH7-A5/GpH7-B3 variant T335_20W/GpL16-k0 (antibody, human IgG1, kappa)
heavy 1: not shown
heavy 2: not shown
light: B1 light
notes: as for B1
In assay [1], B23 had a He/Con_2aH of 105 control = 100.

B24: GpH7-B3 variant E333_14T/GpL16-k0 (antibody, human IgG1, kappa)
heavy: not shown
light: B1 light
notes: as for B4
Take B24: the Ho/Con_2aH in assay [2] was 90.4 control = 100.

B25: GpH7-B3 variant S239_10E/GpL16-k0 (antibody, human IgG1, kappa)
heavy: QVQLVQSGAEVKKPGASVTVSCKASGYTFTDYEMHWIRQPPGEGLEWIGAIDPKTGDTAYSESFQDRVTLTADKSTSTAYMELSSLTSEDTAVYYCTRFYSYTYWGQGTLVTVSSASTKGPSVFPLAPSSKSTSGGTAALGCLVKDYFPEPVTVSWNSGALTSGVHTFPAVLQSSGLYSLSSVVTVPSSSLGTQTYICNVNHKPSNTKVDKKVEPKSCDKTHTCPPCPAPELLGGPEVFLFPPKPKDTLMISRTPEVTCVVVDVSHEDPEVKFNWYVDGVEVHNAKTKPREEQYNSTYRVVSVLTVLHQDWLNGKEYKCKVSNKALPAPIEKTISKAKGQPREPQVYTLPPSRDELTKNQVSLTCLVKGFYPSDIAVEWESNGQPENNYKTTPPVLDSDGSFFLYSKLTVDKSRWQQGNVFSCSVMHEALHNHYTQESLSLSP
light: B1 light
notes: as for B4
B25 had a Ho/Con_2aH in assay [2] of 91.4 control = 100.

B26: GpH7-A5/GpH7-B3 variant E333_09D/GpL16-k0 (antibody, human IgG1, kappa)
heavy 1: not shown
heavy 2: not shown
light: B1 light
notes: as for B1
In assay [1], B26 came in with a He/Con_2aH of 103 control = 100.

B27: GpH7-A5/GpH7-B3 variant I336_06M/GpL16-k0 (antibody, human IgG1, kappa)
heavy 1: not shown
heavy 2: not shown
light: B1 light
notes: as for B1
With B27, the He/Con_2aH in assay [1] is 106 control = 100.

B28: GpH7-B3 variant T335_16H/GpL16-k0 (antibody, human IgG1, kappa)
heavy: not shown
light: B1 light
notes: as for B4
Turning to B28, in assay [2], the Ho/Con_2aH was determined as 100 control = 100.

B29: GpH7-B3 variant T335_07I/GpL16-k0 (antibody, human IgG1, kappa)
heavy: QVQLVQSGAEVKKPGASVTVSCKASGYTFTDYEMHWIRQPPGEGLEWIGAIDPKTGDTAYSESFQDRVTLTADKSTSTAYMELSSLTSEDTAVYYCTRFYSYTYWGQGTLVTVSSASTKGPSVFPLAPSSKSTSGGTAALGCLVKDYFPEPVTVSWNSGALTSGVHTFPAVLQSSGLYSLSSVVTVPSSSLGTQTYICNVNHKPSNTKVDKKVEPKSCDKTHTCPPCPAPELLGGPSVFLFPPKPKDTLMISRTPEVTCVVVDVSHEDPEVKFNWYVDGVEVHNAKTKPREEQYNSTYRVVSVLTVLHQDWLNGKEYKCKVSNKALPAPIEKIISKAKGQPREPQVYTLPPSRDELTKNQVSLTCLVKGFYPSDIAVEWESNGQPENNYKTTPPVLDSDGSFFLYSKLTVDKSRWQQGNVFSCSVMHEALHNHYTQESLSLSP
light: B1 light
notes: as for B4
In turn, B29 returned a Ho/Con_2aH in assay [2] of 105 control = 100.

B30: GpH7-B3 variant T335_01G/GpL16-k0 (antibody, human IgG1, kappa)
heavy: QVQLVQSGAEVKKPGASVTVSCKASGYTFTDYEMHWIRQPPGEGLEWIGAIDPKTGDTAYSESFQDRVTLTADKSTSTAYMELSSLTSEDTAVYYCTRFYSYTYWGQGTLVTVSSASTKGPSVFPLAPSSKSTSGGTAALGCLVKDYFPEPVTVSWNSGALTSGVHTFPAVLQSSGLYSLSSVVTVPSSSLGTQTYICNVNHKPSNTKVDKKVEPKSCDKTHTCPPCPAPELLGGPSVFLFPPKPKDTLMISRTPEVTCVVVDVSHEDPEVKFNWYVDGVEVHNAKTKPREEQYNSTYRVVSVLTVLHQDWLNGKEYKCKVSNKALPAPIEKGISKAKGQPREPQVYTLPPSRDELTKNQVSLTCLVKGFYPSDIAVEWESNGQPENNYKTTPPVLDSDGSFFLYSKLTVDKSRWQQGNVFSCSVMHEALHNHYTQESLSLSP
light: B1 light
notes: as for B4
In assay [2], B30 registered a Ho/Con_2aH of 101 control = 100.

B31: GpH7-B3 variant Y296_18N/GpL16-k0 (antibody, human IgG1, kappa)
heavy: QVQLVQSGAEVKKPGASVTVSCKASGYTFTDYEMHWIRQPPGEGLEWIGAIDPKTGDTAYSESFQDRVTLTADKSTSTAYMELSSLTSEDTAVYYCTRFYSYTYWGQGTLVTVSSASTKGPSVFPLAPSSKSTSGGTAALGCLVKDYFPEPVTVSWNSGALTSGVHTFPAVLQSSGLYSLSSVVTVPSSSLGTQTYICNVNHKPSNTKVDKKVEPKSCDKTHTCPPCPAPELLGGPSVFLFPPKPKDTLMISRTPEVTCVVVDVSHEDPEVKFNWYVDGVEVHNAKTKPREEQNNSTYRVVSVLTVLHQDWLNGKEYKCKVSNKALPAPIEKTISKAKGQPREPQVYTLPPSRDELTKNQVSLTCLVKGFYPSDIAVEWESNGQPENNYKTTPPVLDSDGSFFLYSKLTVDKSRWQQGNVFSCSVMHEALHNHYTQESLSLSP
light: B1 light
notes: as for B4
On to B31, for which, in assay [2], the Ho/Con_2aH amounted to 100 control = 100.

B32: GpH7-B3 variant I336_03V/GpL16-k0 (antibody, human IgG1, kappa)
heavy: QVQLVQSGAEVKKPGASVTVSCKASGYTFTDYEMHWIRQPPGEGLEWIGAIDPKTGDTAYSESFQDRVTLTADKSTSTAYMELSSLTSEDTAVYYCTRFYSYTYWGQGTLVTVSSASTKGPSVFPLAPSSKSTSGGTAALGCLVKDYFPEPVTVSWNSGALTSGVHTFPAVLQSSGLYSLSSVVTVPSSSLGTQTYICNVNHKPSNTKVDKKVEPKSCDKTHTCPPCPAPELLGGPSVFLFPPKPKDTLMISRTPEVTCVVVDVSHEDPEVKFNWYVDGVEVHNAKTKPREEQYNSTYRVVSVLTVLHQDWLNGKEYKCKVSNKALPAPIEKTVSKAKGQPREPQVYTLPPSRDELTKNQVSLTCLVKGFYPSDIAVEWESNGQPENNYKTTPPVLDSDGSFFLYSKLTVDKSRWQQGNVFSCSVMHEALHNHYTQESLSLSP
light: B1 light
notes: as for B4
Consider B32, for which the Ho/Con_2aH in assay [2] turned out to be 90.4 control = 100.

B33: GpH7-A5/GpH7-B3 variant K326_10E/GpL16-k0 (antibody, human IgG1, kappa)
heavy 1: not shown
heavy 2: not shown
light: B1 light
notes: as for B1
The molecule B33 had a He/Con_2aH in assay [1] of 102 control = 100.

B34: GpH7-B3 variant I336_10E/GpL16-k0 (antibody, human IgG1, kappa)
heavy: not shown
light: B1 light
notes: as for B4
With B34, in assay [2], the Ho/Con_2aH was 93.4 control = 100.

B35: GpH7-B3 variant S337_07I/GpL16-k0 (antibody, human IgG1, kappa)
heavy: not shown
light: B1 light
notes: as for B4
B35 registered a Ho/Con_2aH in assay [2] of 94 control = 100.

B36: GpH7-B3 variant T335_13S/GpL16-k0 (antibody, human IgG1, kappa)
heavy: not shown
light: B1 light
notes: as for B4
The molecule B36 registered a Ho/Con_2aH in assay [2] of 101 control = 100.

B37: GpH7-A5/GpH7-B3 variant H268_18N/GpL16-k0 (antibody, human IgG1, kappa)
heavy 1: not shown
heavy 2: not shown
light: B1 light
notes: as for B1
On to B37, for which the He/Con_2aH in assay [1] came to 112 control = 100.

B38: GpH7-B3 variant I336_18N/GpL16-k0 (antibody, human IgG1, kappa)
heavy: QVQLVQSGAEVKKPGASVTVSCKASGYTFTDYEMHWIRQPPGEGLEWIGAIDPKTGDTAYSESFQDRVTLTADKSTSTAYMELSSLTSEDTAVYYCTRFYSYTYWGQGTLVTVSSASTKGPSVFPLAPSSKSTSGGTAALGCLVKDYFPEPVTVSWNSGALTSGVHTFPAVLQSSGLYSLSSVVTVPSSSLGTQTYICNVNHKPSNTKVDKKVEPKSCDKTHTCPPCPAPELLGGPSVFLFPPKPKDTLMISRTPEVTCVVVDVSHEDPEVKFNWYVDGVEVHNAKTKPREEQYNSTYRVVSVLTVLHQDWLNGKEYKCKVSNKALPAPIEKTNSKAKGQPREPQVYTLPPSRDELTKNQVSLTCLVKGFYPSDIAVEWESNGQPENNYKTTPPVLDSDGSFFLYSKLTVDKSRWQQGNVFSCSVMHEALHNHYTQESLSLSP
light: B1 light
notes: as for B4
B38: the Ho/Con_2aH in assay [2] turned out to be 94.3 control = 100.

B39: GpH7-B3 variant G236_15Y/GpL16-k0 (antibody, human IgG1, kappa)
heavy: not shown
light: B1 light
notes: as for B4
For B39, in assay [2], the Ho/Con_2aH was 80.4 control = 100.

B40: GpH7-B3 variant L234_20W/GpL16-k0 (antibody, human IgG1, kappa)
heavy: not shown
light: B1 light
notes: as for B4
As to B40, the Ho/Con_2aH in assay [2] came out at 55.3 control = 100.

B41: GpH7-A5/GpH7-B3 variant T335_18N/GpL16-k0 (antibody, human IgG1, kappa)
heavy 1: not shown
heavy 2: not shown
light: B1 light
notes: as for B1
In assay [1], B41 had a He/Con_2aH of 103 control = 100.

B42: GpH7-B3 variant T335_19Q/GpL16-k0 (antibody, human IgG1, kappa)
heavy: not shown
light: B1 light
notes: as for B4
Consider B42, for which the Ho/Con_2aH in assay [2] was 103 control = 100.

B43: GpH7-A5/GpH7-B3 variant G236_07I/GpL16-k0 (antibody, human IgG1, kappa)
heavy 1: not shown
heavy 2: not shown
light: B1 light
notes: as for B1
With B43, the He/Con_2aH in assay [1] is 115 control = 100.

B44: GpH7-B3 variant E333_13S/GpL16-k0 (antibody, human IgG1, kappa)
heavy: not shown
light: B1 light
notes: as for B4
On to B44, for which the Ho/Con_2aH in assay [2] worked out at 94.6 control = 100.

B45: GpH7-B3 variant L234_15Y/GpL16-k0 (antibody, human IgG1, kappa)
heavy: not shown
light: B1 light
notes: as for B4
B45 returned a Ho/Con_2aH in assay [2] of 43.8 control = 100.

B46: GpH7-B3 variant S267_10E/GpL16-k0 (antibody, human IgG1, kappa)
heavy: not shown
light: B1 light
notes: as for B4
B46 displayed a Ho/Con_2aH in assay [2] of 98.5 control = 100.

B47: GpH7-B3 variant V266_07I/GpL16-k0 (antibody, human IgG1, kappa)
heavy: not shown
light: B1 light
notes: as for B4
As to B47, the Ho/Con_2aH in assay [2] was 104 control = 100.

B48: GpH7-B3 variant E333_04F/GpL16-k0 (antibody, human IgG1, kappa)
heavy: not shown
light: B1 light
notes: as for B4
Take B48: the Ho/Con_2aH in assay [2] came to 93.6 control = 100.

B49: GpH7-A5/GpH7-B3 variant S337_20W/GpL16-k0 (antibody, human IgG1, kappa)
heavy 1: not shown
heavy 2: not shown
light: B1 light
notes: as for B1
In assay [1], B49 gave a He/Con_2aH of 102 control = 100.

B50: GpH7-A5/GpH7-B3 variant Y296_04F/GpL16-k0 (antibody, human IgG1, kappa)
heavy 1: not shown
heavy 2: not shown
light: B1 light
notes: as for B1
In assay [1], B50 gave a He/Con_2aH of 100 control = 100.

B51: GpH7-A5/GpH7-B3 variant K326_06M/GpL16-k0 (antibody, human IgG1, kappa)
heavy 1: not shown
heavy 2: not shown
light: B1 light
notes: as for B1
In assay [1], B51 showed a He/Con_2aH of 103 control = 100.

B52: GpH7-B3 variant T335_15Y/GpL16-k0 (antibody, human IgG1, kappa)
heavy: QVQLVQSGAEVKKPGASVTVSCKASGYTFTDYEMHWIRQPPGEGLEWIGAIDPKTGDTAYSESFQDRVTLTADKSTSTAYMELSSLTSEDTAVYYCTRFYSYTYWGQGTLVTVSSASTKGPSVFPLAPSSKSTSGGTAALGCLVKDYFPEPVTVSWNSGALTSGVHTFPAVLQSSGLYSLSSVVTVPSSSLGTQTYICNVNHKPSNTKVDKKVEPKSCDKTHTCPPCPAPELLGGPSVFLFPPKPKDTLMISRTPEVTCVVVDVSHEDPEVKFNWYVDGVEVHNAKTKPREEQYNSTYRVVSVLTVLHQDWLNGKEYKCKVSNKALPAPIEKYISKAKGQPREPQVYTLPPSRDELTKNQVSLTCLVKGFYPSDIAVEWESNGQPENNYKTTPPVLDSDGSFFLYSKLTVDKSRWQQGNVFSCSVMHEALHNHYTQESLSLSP
light: B1 light
notes: as for B4
In turn, B52 returned a Ho/Con_2aH in assay [2] of 102 control = 100.

B53: GpH7-B3 variant A327_09D/GpL16-k0 (antibody, human IgG1, kappa)
heavy: not shown
light: B1 light
notes: as for B4
With B53, in assay [2], the Ho/Con_2aH turned out to be 90.1 control = 100.

B54: GpH7-B3 variant A330_19Q/GpL16-k0 (antibody, human IgG1, kappa)
heavy: not shown
light: B1 light
notes: as for B4
In assay [2], B54 registered a Ho/Con_2aH of 99.2 control = 100.

For the origin of these results see patent US20180155451A1 (published 2018).
